Assay: yeast display, Sf9 membrane polyspecificity reagent, FACS + sequencing; frameworks hold sequencing errors
Summary of the method: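 Polyreactivity labels are assigned by the sorting gate from which each nanobody was recovered. The gates were low and high (top ~1%), set on anti-HA fluorescence for expression and streptavidin fluorescence for reagent binding. Before sorting, galactose-induced (36–48 hours) yeast display cells were stained for 1 hour at 4 °C with 10% biotinylated, detergent-solubilized Sf9 membrane reagent.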

Row | Sequence | polyreactivity (PSR sort gate)
1 | QVQLVESGGGLVQAGGSLRVSCAASGSTFLVYARGWYRQAPGKERELVAAISWSGGSTYYADSVKGRFTISRDNAKKTVYLQMNSLKPEDTAVYYCNAEGIYRQPRGYVYRYDYWGQGTQVTVSS | high polyreactivity
2 | QVQLVESGGGLDHARGSLRLICPASGRTFAPYAMGWYRQAPGKERELVARITWSGTDTYYADSVKGRFTISRDNAKNTVYLQMNCLKPDDTAVYYCAADARYSRRYYYWGQGTQVTVSS | low polyreactivity
3 | QVQLVESGGGLVQAGGSLRLSCAASGSIFNAYDMGWYRQAPGKERELVAGISSSDSTYYADSVKGRFTISRDNAKNTVYLQMNSLIPEDTAVYYCAADPVFAAAYIHLYGIYDSWGQGTQVTVSS | low polyreactivity
4 | QFQLVESGGGLVQAGGSLRLSCAASGRIFGIYAMGWDRQAPGKESELVATITDSDDSTYYADSVKGRFTISRDNAKNTVYLQMNSLKPEDTAVYYCATAFSYGGGAYDYWGQGTQVTVSS | low polyreactivity
5 | QDQLVESGGGLDQAGCILRLSCAASGITFSVYTMGWSRQAPGKERELVAANDSDGITNYADSVKGRFTISRDNAKNTDYLQMNSLKPEDTAVYYCNAIADGSSSRWRPYSKFYYWGKGTQVTVSS | low polyreactivity
6 | QVQLVESGGGLVQAGGSLRLSCAASGLTFDGNAMGWYRQAPGKERELVAAITSSGGNTYYADSVKGRFTISRDNAKNTVYLQMNSLKPEDTAVYYCAAGGYRWSARTWSWVRYDYWGQGTQVTVSS | high polyreactivity
7 | QVQLVESGGGLVQAGGSLRLSCAASGRTFGWNVMGWYRQAPGKERELVAAISGSGGSTYYADSVKGRFTISRDNAKNTVYLQMNSLKPEDTAVYYCAALYGPGREYDYWGQGTQVTVSS | low polyreactivity
8 | QVHLVESGAGLVQAGGSLSLSCAASVFTLHVYALGWYRQAPGKERELVAALSTGGNTNYADSVKGRFTISRDNAKNTVYLQMHSLKPEDTAVYYCAASNRGATRRQVNYWGQGTQVTVSS | high polyreactivity
9 | QVQLVESGGGLVQAGGSLRLSCAASGITLDRYDMGWYRQAPGKERELVAAISRSGVRTYYADSVKGRFTISRDNAKNTVYLQMNSLKPEDTAVYYCNKGYARRYASGYDYWGQGTQVTVSS | high polyreactivity
10 | QVQLVESGGGLVQAGGSLRLSCAASGRTFGAYAMGWYRQAPGKERELVAAISNGGRTYYADSVKGRFTISRDNAKNTVYLQMNSLKPEDTAVYYCNKVRSPWYDSWGQGTQVTVSS | high polyreactivity
11 | QVQLVESGGGLVQAGGSLRLTCAASGFTFYGYAMGRYRQAPGKERELVAAISSSGTSTYSGDSVKGRFTISRDNAKNTVYLQMNSLKPEDTAVYYCAKDFYRRFYSWGQGTQVTLSS | high polyreactivity
12 | QVQLVESGGGLVQAGGSLRLSCAASGRIFRYYTMGWYRQAPGKEREFVAAITLSGGRTYYADSVKGRFTISRDNAKNTVYLQMNSLKPEDTAVYYCAAYDRITRYDYWGQGTQVTVSS | high polyreactivity
13 | QVQLVESGGGLVQAGGSLRLSCAASGSIFDVNAMGWYRQAPGKERELVAAISDSTTSTYYADSVKGRFTISRDNAKNTVYLQMNSLKPEDTAVYYCNTPGLPIDSEYDYWGQGTQVTVSS | low polyreactivity
14 | QVQLVESGGGLVQAGGSLRLSCAASGITFYGNDMGGYRQAPGKERELVAAISYSGGSTYYADSVKGRFTISRDNAKNTVYLQMNSLKPEDNAGYYCAVEGTKLYEYYWGQVTQVTVSS | low polyreactivity
15 | QVQLVESGGGLVQAGGSLRLSCAASGSIFYVYAMGWYRQAPGKERELVADITTRDGDTYYADSVKGRFTISRDNAKNTVYLQMNSLKPEDTAVYYCAADLNAYPQRAYDYWGQGTQVTVSS | low polyreactivity
16 | QVQLVESGGGLVQAGGSLRLSCAASGSTFYRYAMGWYRQAPGKERELVAAISSSGGSTYYADSVKGRFTISRDNAKNTVYLQMNSLKPEDTAVYYCNADVHSQYDYWGQGTQVTVSS | low polyreactivity
17 | QVQLVESGGGLVQAGGSLRLSCAASGSIFPIYAMGWYRQAPGKERELVAAISGSGARTYYADSVKGRFTISRDNAKNTVYLQMNSLKPEDTAVYYCNAKYGYDSEARIVKPVRYDYWGQGTQVTVSS | high polyreactivity

Source: the nanobody polyreactivity screen of Harvey et al. (2022)
